Legend:
[1] = biological target: recombinant human vascular endothelial growth factor (hVEGF) 121 (human) (UniProt P15692); assay: single point competitive phage-ELISA: residual binding of the Fab-phage to hVEGF after competition with 1 nM hVEGF
[2] = biological target: T1, recombinant human vascular endothelial growth factor (hVEGF) 121 (human, UniProt P15692 27-147); assay: as above
T1 construct: mature; also called human VEGF-A121; hVEGF 121 isoform
T1 sequence (looked up): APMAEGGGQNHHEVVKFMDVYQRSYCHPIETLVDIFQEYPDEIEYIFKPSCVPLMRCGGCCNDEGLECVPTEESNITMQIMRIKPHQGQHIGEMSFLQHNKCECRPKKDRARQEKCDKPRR

[3] = biological target: T1, recombinant human vascular endothelial …; assay: competitive Fab-ELISA (hVEGF)
[4] = biological target: T2, recombinant human VEGF 165 isoform (human, UniProt P15692 27-191); assay: competitive ELISA in solution, 10 pM hVEGF-165, free VEGF read with Quantikine kit
T2 construct: mature
Source text: (§1) Kd calculated from the data fitted with a 5 parameter asymmetric model with Prism software.
Target sequence in this assay (P15692 other isoform, or with tags, fused parts or gaps): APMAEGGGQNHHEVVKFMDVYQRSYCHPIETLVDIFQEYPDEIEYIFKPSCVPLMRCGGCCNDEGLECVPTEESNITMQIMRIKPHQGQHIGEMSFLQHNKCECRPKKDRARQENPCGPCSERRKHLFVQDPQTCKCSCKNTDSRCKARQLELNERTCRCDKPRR

[5] = biological target: T1, recombinant human vascular endothelial …; assay: competitive ELISA, 100 pM Fab with serial dilutions of hVEGF-121, free Fab caught on hVEGF-121 plate; Kd estimated from IC50
[6] = biological target: T2, recombinant human VEGF 165 isoform; assay: competitive ELISA in solution: 10 pM hVEGF-165 incubated with serial dilutions of the Fab; hVEGF-165 captured and detected with the Quantikine human VEGF ELISA kit
Source text: FIG. 20. Competitive-ELISA. […] Kd was estimated using IC50 calculated from the data fitted with a 5 parameter asymmetric model with Prism software are shown in the table at the bottom of the figure.
as §1

[7] = biological target: T1, recombinant human vascular endothelial …; assay: competitive ELISA with soluble Fab (column 'Affinity measured by competitive ELISA'); hVEGF, isoform not told in the legend
[8] = biological target: T1, recombinant human vascular endothelial …; assay: competitive Fab-ELISA, data and fit for the Kd of panel A; x axis printed as LOG([Fab] nM) with ticks 10^-6 to 10^2; hVEGF, isoform not told
[9] = biological target: T1, recombinant human vascular endothelial …; assay: competitive Fab-ELISA
[10] = biological target: T1, recombinant human vascular endothelial …; assay: SPR, off rate of hVEGF-121 binding
[11] = biological target: T2, recombinant human VEGF 165 isoform; assay: competitive ELISA in solution: 5 pM hVEGF-165 incubated with serial dilutions of the antibody; hVEGF-165 captured and detected with the Quantikine human VEGF ELISA kit
[12] = biological target: T2, recombinant human VEGF 165 isoform; assay: cell-based or functional assay
[13] = biological target: T2, recombinant human VEGF 165 isoform; assay: competitive ELISA in solution: 5 pM hVEGF-165 incubated with serial dilutions of the Fab; hVEGF-165 captured and detected with the Quantikine human VEGF ELISA kit
Source text: FIG. 11. Competitive Fab-ELISA.
Since library FF01159-1 was designed with a deletion of one residue near the end of CDR-L2 (Kabat), the selected Fabs FF03033-4 and FF03033-8 were mutagenized to reintroduce previously deleted tyrosine residue back at the deleted position.

[14] = biological target: T2, recombinant human VEGF 165 isoform; assay: competitive ELISA in solution: 5 pM hVEGF-165 incubated with serial dilutions of the antibody; hVEGF-165 captured and detected with the Quantikine human VEGF ELISA kit; 5 parameter fit

B1: FF0117-A10 (Fab, V domains shown)
VH: EVQLVESGGGLVQPGGSLRLSCAASGFDLFHYSIHWVRQAPGKGLEWVAYIYPSYGYTYYADSVKGRFTISADTSKNTAYLQMNSLRAEDTAVYYCARHAWYYGWALDYWGQGTLVTVSS
VL: DIQMTQSPSSLSASVGDRVTITCRASQSVSSAVAWYQQKPGKAPKLLIYSASSLYSGVPSRFSGSRSGTDFTLTISSLQPEDFATYYCQQRGWYLFTFGQGTKVEIK
Residual binding of competitive phage-ELISA 1nM [1]: 7%

B2: FF0117-A8 (Fab, V domains shown)
VH: EVQLVESGGGLVQPGGSLRLSCAASGFDLFHYSIHWVRQAPGKGLEWVAYIYPSYGYTYYADSVKGRFTISADTSKNTAYLQMNSLRAEDTAVYYCARHAWYSGWALDYWGQGTLVTVSS
VL: DIQMTQSPSSLSASVGDRVTITCRASQSVSSAVAWYQQKPGKAPKLLIYSASSLYSGVPSRFSGSRSGTDFTLTISSLQPEDFATYYCQQRGWYLFTFGQGTKVEIK
notes: fourth generation Fab from the library based on FF0188-H5
Residual binding of competitive phage-ELISA 1nM [2]: 17%
Kd [3]: 0.13 nM

B3: Fab 201 (Variant 201, produced from Clone #201) (Fab, V domains shown)
VH: EVQLVESGGGLVQPGGSLRLSCAASGFDLFHYSIHWVRQAPGKGLEWVAYIYPSYGYTYYADSVKGRFTISADTSKNTAYLQMNSLRAEDTAVYYCARHAWYYGWGLDYWGQGTLVTVSS
VL: DIQMTQSPSSLSASVGDRVTITCRASQAAYGRVAWYQQKPGKAPKLLIYKASELYAGVPSRFSGSRSGTDFTLTISSLQPEDFATYYCQQRGWYLFTFGQGTKVEIKR
notes: also called Fab-F8.y
Kd [4]: 0.025 nM
Kd [5]: 0.11 nM

B4: Fab variant 216 (Fab 216, derived from Clone #201) (Fab, V domains shown)
VH: EVQLVESGGGLVQPGGSLRLSCAASGFDLDHYSIHWVRQAPGKGLEWVAYIYPSYGYTYYADSVKGRFTISADTSKNTAYLQMNSLRAEDTAVYYCARHAWYYGWGLDYWGQGTLVTVSS
VL: DIQMTQSPSSLSASVGDRVTITCRASQAAYGRVAWYQQKPGKAPKLLIYKASELYAGVPSRFSGSRSGTDFTLTISSLQPEDFATYYCQQRGWYLFTFGQGTKVEIKR
Kd [4]: 0.035 nM
IC50 (read off the curve) [6]: ~0.04 nM

B5: FF0188-H5 (Fab, V domains shown)
VH: EVQLVESGGGLVQPGGSLRLSCAASGFDLFHYSIHWVRQAPGKGLEWVAYIYPSYGYTYYADSVKGRFTISADTSKNTAYLQMNSLRAEDTAVYYCARHAWYSGWAMDYWGQGTLVTVSS
VL: DIQMTQSPSSLSASVGDRVTITCRASQSVSSAVAWYQQKPGKAPKLLIYSASSLYSGVPSRFSGSRSGTDFTLTISSLQPEDFATYYCQQRGWYLFTFGQGTKVEIK
notes: third generation Fab, parent of the FF0117 library; also called FF0188-H5(2)
Kd [3]: 0.4 nM
Kd [7]: 0.45 nM
IC50 (read off the curve) [8]: ~0.4 nM

B6: FF0158-C4 (Fab, V domains shown)
VH: EVQLVESGGGLVQPGGSLRLSCAASGFNLYYYSIHWVRQAPGKGLEWVAYIYPSYGYTYYADSVKGRFTISADTSKNTAYLQMNSLRAEDTAVYYCARHAWYSGWAMDYWGQGTLVTVSS
VL: DIQMTQSPSSLSASVGDRVTITCRASQSVSSAVAWYQQKPGKAPKLLIYSASSLYSGVPSRFSGSRSGTDFTLTISSLQPEDFATYYCQQRGWYLFTFGQGTKVEIK
notes: Second generation Fab, Fab-phage in the single point assay; also called FF0158-C4 (2)
Kd [7]: 0.15 nM
IC50 (read off the curve) [8]: ~0.1 nM

B7: FF0117-A11 (Fab, V domains shown)
VH: EVQLVESGGGLVQPGGSLRLSCAASGFDLFHYSIHWVRQAPGKGLEWVAYIYPSYGYTYYADSVKGRFTISADTSKNTAYLQMNSLRAEDTAVYYCARHAWYWGWALDYWGQGTLVTVSS
VL: DIQMTQSPSSLSASVGDRVTITCRASQSVSSAVAWYQQKPGKAPKLLIYSASSLYSGVPSRFSGSRSGTDFTLTISSLQPEDFATYYCQQRGWYLFTFGQGTKVEIK
notes: as for B2
Residual binding of competitive phage-ELISA 1nM [2]: 5%
Kd [3]: 0.03 nM

B8: FF0117-A5 (Fab, V domains shown)
VH: EVQLVESGGGLVQPGGSLRLSCAASGFDLFHYSIHWVRQAPGKGLEWVAYIYPSYGYTYYADSVKGRFTISADTSKNTAYLQMNSLRAEDTAVYYCARHAWYYGWGLDYWGQGTLVTVSS
VL: DIQMTQSPSSLSASVGDRVTITCRASQSVSSAVAWYQQKPGKAPKLLIYSASSLYSGVPSRFSGSRSGTDFTLTISSLQPEDFATYYCQQRGWYLFTFGQGTKVEIK
notes: Fourth generation Fab; also called FF0117-A5 (2); Fab-A5
Residual binding of competitive phage-ELISA 1nM [2]: 14%
Kd [9]: 0.08 nM
koff [10]: 0.000255 s⁻¹

B9: Fab FF03046-2 (Fab, V domains shown)
VH: EVQLVESGGGLVQPGGSLRLSCAASGFDLFHYSIHWVRQAPGKGLEWVAYIYPSYGYTYYADSVKGRFTISADTSKNTAYLQMNSLRAEDTAVYYCARHAWYYGWGLDYWGQGTLVTVSS
VL: DIQMTQSPSSLSASVGDRVTITCRASQAAYGRVAWYQQKPGKAPKLLIYKASELYAGVPSRFSGSRSGTDFTLTISSLQPEDFATYYCQQRGWYLFTFGQGTKVEIKR
notes: also called FF0346-2
IC50 (read off the curve) [11]: ~0.09 nM
EC50, HUVEC proliferation assay [12]: 200 pM
IC50 (read off the curve) [13]: ~0.09 nM
Kd [14]: 0.09 nM

B10: FF0117-A3 (Fab, V domains shown)
VH: EVQLVESGGGLVQPGGSLRLSCAASGFDLFHYSIHWVRQAPGKGLEWVAYIYPSYGYTYYADSVKGRFTISADTSKNTAYLQMNSLRAEDTAVYYCARHAWYFGWALDYWGQGTLVTVSS
VL: DIQMTQSPSSLSASVGDRVTITCRASQSVSSAVAWYQQKPGKAPKLLIYSASSLYSGVPSRFSGSRSGTDFTLTISSLQPEDFATYYCQQRGWYLFTFGQGTKVEIK
notes: as for B2
Residual binding of competitive phage-ELISA 1nM [2]: 7%
Kd [3]: 0.06 nM

B11: FF0188-B10 (Fab, V domains shown)
VH: EVQLVESGGGLVQPGGSLRLSCAASGFDLFHYSIHWVRQAPGKGLEWVAYIYPSYGYTYYADSVKGRFTISADTSKNTAYLQMNSLRAEDTAVYYCARHAWYSGWAMDYWGQGTLVTVSS
VL: DIQMTQSPSSLSASVGDRVTITCRASQSVSSAVAWYQQKPGKAPKLLIYSASSLYSGVPSRFSGSRSGTDFTLTISSLQPEDFATYYCQQRGWYLFTFGQGTKVEIK
notes: third generation Fab from libraries based on FF0158-C4; also called FF01088-B10
Kd [7]: 0.41 nM
IC50 (read off the curve) [8]: ~0.4 nM

Reference: US20220235123A1 (UNIVERSITY OF TORONTO, published 2022)
